Measurements published in the supplement of paper PMC10567573.

B1: RBBP5 (parent)
chain: TGTSNTTAIKSIEFARKGSCFLIN
B2: KRT34 (parent)
chain: YQSYFKTIEELQQKILCAKAENAR

Variants of: B1
Assay: protein stability index of a GFP-peptide fusion (GPS, HEK-293T) (PSI 1-6); higher = more stable
Conditions: c terminus: a fixed tail appended
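Note: lentivirally expressed fusions sorted by FACS into six bins by GFP to DsRed ratio, PSI derived from sequencing read proportions per bin multiplied by bin number.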

Variant	protein stability index
TGTSNTTAIKSIEFARKGSCFLIK [N24K]	2.02
TGTSNTTAIKSIEFARKGSCFLIS [N24S]	2.04
TGTSNTTAIKSIEFARKGSCFLIW [N24W]	2.71
TGTSNTTAIKSIEFARKGSCFLID [N24D]	2.85
TGTSNTTAIKSIEFARKGSCFLIM [N24M]	2.16
TGTSNTTAIKSIEFARKGSCFLIG [N24G]	2.27
TGTSNTTAIKSIEFARKGSCFLIT [N24T]	1.76
TGTSNTTAIKSIEFARKGSCFLIE [N24E]	3.01
TGTSNTTAIKSIEFARKGSCFLIP [N24P]	3.12
TGTSNTTAIKSIEFARKGSCFLIF [N24F]	2.74
TGTSNTTAIKSIEFARKGSCFLIQ [N24Q]	1.79
TGTSNTTAIKSIEFARKGSCFLIY [N24Y]	1.96
TGTSNTTAIKSIEFARKGSCFLIC [N24C]	2.38
TGTSNTTAIKSIEFARKGSCFLIH [N24H]	2.35
TGTSNTTAIKSIEFARKGSCFLIL [N24L]	2.22
TGTSNTTAIKSIEFARKGSCFLIA [N24A]	1.89
TGTSNTTAIKSIEFARKGSCFLIR [N24R]	2.09
TGTSNTTAIKSIEFARKGSCFLWN [I23W]	2.36
TGTSNTTAIKSIEFARKGSCFLHN [I23H]	2.79
TGTSNTTAIKSIEFARKGSCFLKN [I23K]	3.62
TGTSNTTAIKSIEFARKGSCFLTN [I23T]	3.5
TGTSNTTAIKSIEFARKGSCFLQN [I23Q]	3.31
TGTSNTTAIKSIEFARKGSCFLLN [I23L]	2.05
TGTSNTTAIKSIEFARKGSCFLPN [I23P]	2.82
TGTSNTTAIKSIEFARKGSCFLNN [I23N]	2.99
TGTSNTTAIKSIEFARKGSCFLVN [I23V]	2.62
TGTSNTTAIKSIEFARKGSCFLSN [I23S]	3.1
TGTSNTTAIKSIEFARKGSCFLMN [I23M]	2.49
TGTSNTTAIKSIEFARKGSCFLYN [I23Y]	2.58
TGTSNTTAIKSIEFARKGSCFLRN [I23R]	3.03

Variants of: B2
Assay: as above
Conditions: c terminus: a fixed tail appended

Variant	protein stability index
YQSYFKLIEELQQKILCAKAENAR [T7L]	1.64
YQSYFKIIEELQQKILCAKAENAR [T7I]	1.84
YQSYFKEIEELQQKILCAKAENAR [T7E]	2.58
YQSYFKPIEELQQKILCAKAENAR [T7P]	1.77
YQSYFKGIEELQQKILCAKAENAR [T7G]	1.96
YQSYFKNIEELQQKILCAKAENAR [T7N]	2.34
YQSYFKYIEELQQKILCAKAENAR [T7Y]	2.24
YQSYFKQIEELQQKILCAKAENAR [T7Q]	2.07
YQSYFKRIEELQQKILCAKAENAR [T7R]	1.86
YQSYFKHIEELQQKILCAKAENAR [T7H]	2.35
YQSYFKKIEELQQKILCAKAENAR [T7K]	1.58
YQSYFKAIEELQQKILCAKAENAR [T7A]	2.2
YQSYFKDIEELQQKILCAKAENAR [T7D]	2.44
YQSYFKCIEELQQKILCAKAENAR [T7C]	1.64
YQSYFKSIEELQQKILCAKAENAR [T7S]	3.16
YQSYFKVIEELQQKILCAKAENAR [T7V]	1.72
YQSYFKFIEELQQKILCAKAENAR [T7F]	1.81
YQSYFKMIEELQQKILCAKAENAR [T7M]	1.67
YQSAFKTIEELQQKILCAKAENAR [Y4A]	2.2
YQSLFKTIEELQQKILCAKAENAR [Y4L]	1.93
YQSFFKTIEELQQKILCAKAENAR [Y4F]	1.86
YQSEFKTIEELQQKILCAKAENAR [Y4E]	1.63

Variant	protein stability index
YQSPFKTIEELQQKILCAKAENAR [Y4P]	2.19
YQSKFKTIEELQQKILCAKAENAR [Y4K]	1.52
YQSQFKTIEELQQKILCAKAENAR [Y4Q]	2.65
YQSSFKTIEELQQKILCAKAENAR [Y4S]	2
YQSVFKTIEELQQKILCAKAENAR [Y4V]	1.57
YQSHFKTIEELQQKILCAKAENAR [Y4H]	2.4
YQSNFKTIEELQQKILCAKAENAR [Y4N]	2.21
YQSDFKTIEELQQKILCAKAENAR [Y4D]	2.24
YQSGFKTIEELQQKILCAKAENAR [Y4G]	3.06
YQSMFKTIEELQQKILCAKAENAR [Y4M]	1.48
YQSTFKTIEELQQKILCAKAENAR [Y4T]	2.98
YQSIFKTIEELQQKILCAKAENAR [Y4I]	2.27
YQSRFKTIEELQQKILCAKAENAR [Y4R]	2.14
YQSCFKTIEELQQKILCAKAENAR [Y4C]	1.73
YSSYFKTIEELQQKILCAKAENAR [Q2S]	2.5
YHSYFKTIEELQQKILCAKAENAR [Q2H]	3.43
YISYFKTIEELQQKILCAKAENAR [Q2I]	1.57
YDSYFKTIEELQQKILCAKAENAR [Q2D]	2.13
YTSYFKTIEELQQKILCAKAENAR [Q2T]	1.59
YASYFKTIEELQQKILCAKAENAR [Q2A]	2.1
YKSYFKTIEELQQKILCAKAENAR [Q2K]	2.54
YPSYFKTIEELQQKILCAKAENAR [Q2P]	2.26

Variant	protein stability index
YWSYFKTIEELQQKILCAKAENAR [Q2W]	2.39
YESYFKTIEELQQKILCAKAENAR [Q2E]	3.07
YVSYFKTIEELQQKILCAKAENAR [Q2V]	1.54
YLSYFKTIEELQQKILCAKAENAR [Q2L]	1.9
YGSYFKTIEELQQKILCAKAENAR [Q2G]	2.12
YNSYFKTIEELQQKILCAKAENAR [Q2N]	2.28
YCSYFKTIEELQQKILCAKAENAR [Q2C]	1.88
YFSYFKTIEELQQKILCAKAENAR [Q2F]	2.53
YMSYFKTIEELQQKILCAKAENAR [Q2M]	2.14
YRSYFKTIEELQQKILCAKAENAR [Q2R]	2.25
YYSYFKTIEELQQKILCAKAENAR [Q2Y]	2.04
LQSYFKTIEELQQKILCAKAENAR [Y1L]	1.55
PQSYFKTIEELQQKILCAKAENAR [Y1P]	3.59
AQSYFKTIEELQQKILCAKAENAR [Y1A]	3.3
MQSYFKTIEELQQKILCAKAENAR [Y1M]	2.1
VQSYFKTIEELQQKILCAKAENAR [Y1V]	2.27
DQSYFKTIEELQQKILCAKAENAR [Y1D]	4.17
GQSYFKTIEELQQKILCAKAENAR [Y1G]	3.95
RQSYFKTIEELQQKILCAKAENAR [Y1R]	2.94
NQSYFKTIEELQQKILCAKAENAR [Y1N]	3.45
